Reference: patent US11833164B2, “Methods of treating Fabry disease in patients having a mutation in the GLA gene” (Amicus Therapeutics, Inc., priority 2019, dated 2023)
Positions count from the first letter of the chain named. Numbers in names are those of the source.

B1: A288G (protein)
chain: MQLRNPELHLGCALALRFLALVSWDIPGARALDNGLARTPTMGWLHWERFMCNLDCQEEPDSCISEKLFMEMAELMVSEGWKDAGYEYLCIDDCWMAPQRDSEGRLQADPQRFPHGIRQLANYVHSKGLKLGIYADVGNKTCAGFPGSFGYYDIDAQTFADWGVDLLKFDGCYCDSLENLADGYKHMSLALNRTGRSIVYSCEWPLYMWPFQKPNYTEIRQYCNHWRNFADIDDSWKSIKSILDWTSFNQERIVDVAGPGGWNDPDMLVIGNFGLSWNQQVTQMALWGIMAAPLFMSNDLRHISPQAKALLQDKDVIAINQDPLGKQGYQLRQGDNFEVWERPLSGLAWAVAMINRQEIGGPRSYTIAVASLGKGVACNPACFITQLLPVKRKLGFYEWTSRLRSHINPTGTVLLQLENTMQMSLKDLL
B2: I289V (protein)
chain: B1 chain with G288A, I289V
B3: F295I (protein)
chain: B1 chain with G288A, F295I
B4: L294I (protein)
chain: B1 chain with G288A, L294I
B5: N298D (protein)
chain: B1 chain with G288A, N298D
B6: F295Y (protein)
chain: B1 chain with G288A, F295Y
B7: I289T (protein)
chain: B1 chain with G288A, I289T
B8: F295S (protein)
chain: B1 chain with G288A, F295S
B9: A288V (protein)
chain: B1 chain with G288V
B10: L294V (protein)
chain: B1 chain with G288A, L294V
B11: A291G (protein)
chain: B1 chain with G288A, A291G
B12: L294F (protein)
chain: B1 chain with G288A, L294F
B13: A292G (protein)
chain: B1 chain with G288A, A292G
B14: S297T (protein)
chain: B1 chain with G288A, S297T
B15: F295V (protein)
chain: B1 chain with G288A, F295V
B16: A288S (protein)
chain: B1 chain with G288S
B17: A292S (protein)
chain: B1 chain with G288A, A292S
B18: I289L (protein)
chain: B1 chain with G288A, I289L

Test system: mutant form of α-Gal A expressed in HEK-293 cells
Test: HEK assay (GLP HEK / Migalastat Amenability Assay): α-Gal A activity in lysates of transiently transfected HEK-293 cells incubated with or without 10 μM migalastat
Format: cell-based, human
Settings: for Absolute increase (% WT) / Relative increase: 10 μM migalastat versus baseline; for Baseline α-Gal A activity (% WT): absence of migalastat; for Baseline α-Gal A activity (% WT) / 10 μM migalastat α-Gal A activity (% WT): percentage of baseline wild-type α-Gal A activity; for 10 μM migalastat α-Gal A activity: incubated 5 days with 10 μM migalastat; for 10 μM migalastat α-Gal A activity (% WT): with 10 μM migalastat, 5 days
How it was run: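 HEK-293 cells transiently transfected with mutant α-Gal A and incubated with or without 10 μM migalastat; lysate activity given as nmol free 4-MU released per mg protein per hour. Values are mean±SEM.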

[1] = lysates of HEK-293 cells transiently transfected with the mutant form, incubated 5 days in absence of migalastat, mean ± SEM
[2] = lysates of HEK-293 cells transiently transfected with the mutant form, mean ± SEM

Row | Molecule | Absolute increase (% WT) | Relative increase | Baseline α-Gal A activity (% WT) (mean ± SEM) | Baseline α-Gal A activity [1] [nmol/mg/h] | 10 μM migalastat α-Gal A activity [2] [nmol/mg/h] | 10 μM migalastat α-Gal A activity (% WT) (mean ± SEM) | Baseline α-Gal A activity (nmol/mg/hr) [1]
1 | B1 | 19.9 | 1.4 | 56.8 ± 6.3 | 22208 ± 1755 | 30458 ± 2381 | 76.7 ± 7.4 | –
2 | B2 | 13.6 | 1.2 | 61.2 ± 3.2 | 25845 ± 1706 | 31489 ± 1397 | 74.8 ± 2.7 | –
3 | B3 | 25.7 | 1.3 | 78.3 ± 4.5 | 26687 ± 1470 | 35634 ± 2203 | 104.1 ± 6.6 | –
4 | B4 | 53.6 | 3.2 | 24.8 ± 2.4 | 8345 ± 717 | 26761 ± 1915 | 78.4 ± 6 | –
5 | B5 | 21.7 | 9.6 | 2.5 ± 0.2 | 795 ± 56 | 7645 ± 388 | 24.2 ± 1.2 | –
6 | B6 | 36.3 | 1.6 | 62.9 ± 6.1 | 21452 ± 1929 | 34502 ± 2504 | 99.2 ± 6.5 | –
7 | B7 | 36.7 | 2.0 | 38.6 ± 4.8 | 15033 ± 1450 | 29673 ± 2480 | 75.3 ± 7.9 | –
8 | B8 | 10.5 | 16.8 | 0.6 ± 0.1 | 230 ± 45 | 3847 ± 309 | 11.1 ± 0.9 | –
9 | B9 | 31.7 | 1.4 | 82.5 ± 9 | 32777 ± 3168 | 45501 ± 4634 | 114.2 ± 12.4 | –
10 | B10 | 33.8 | 9.0 | 4.4 ± 0.3 | 1452 ± 71 | 13038 ± 880 | 38.2 ± 2.7 | –
11 | B11 | 34.9 | 2.3 | 26.6 ± 1.5 | 6953 ± 474 | 16073 ± 954 | 61.5 ± 2.6 | –
12 | B12 | 38.8 | 2.3 | 29.6 ± 3 | 10147 ± 971 | 23486 ± 2100 | 68.4 ± 6.5 | –
13 | B13 | 24.3 | 1.6 | 41.1 ± 2.2 | 12091 ± 652 | 19406 ± 1361 | 65.3 ± 4 | –
14 | B14 | 9.7 | – | – | – | 3178 ± 327 | 9.7 ± 0.8 | BLD (“BLD” indicates that the mean α-Gal A activity was below the limit of detection (<142 nmol/mg/hr))
15 | B15 | 48.0 | 1.7 | 73.4 ± 5.7 | 24973 ± 1752 | 41782 ± 2877 | 121.5 ± 7.7 | –
16 | B16 | 25.8 | 1.2 | 114.6 ± 10.6 | 45790 ± 3395 | 55988 ± 2609 | 140.4 ± 10.5 | –
17 | B17 | 21.3 | 1.3 | 68.6 ± 2.9 | 18002 ± 1127 | 23779 ± 1584 | 89.9 ± 3.4 | –
18 | B18 | 27.5 | 1.3 | 96.9 ± 10.5 | 37941 ± 3208 | 49640 ± 3368 | 124.4 ± 11.3 | –
